17 sequences from a protein production outcome set (Wang et al. 2014) can be followed below.

The data set is described as follows: label from the status in PepcDB records.

Take “MVEQRNRGRPAVPDAVVRESIVGAAQRLLSSGGAAAMTMEGVASEAGIAKKTLYRFASGRADLIGLLVESWIAPIFPGFEADPQDAAAALERIVYDIAQAVLSREAVSLFRMLASDADLRNRFLPAYNANGIERSRRELARWLDQQASAGRLPLPIPAERVADLLLSAVIAEPLRQITLGLREPLPAWDIAPRVADAVRLIAPGRER”: the protein production entry is “not failed”. The same measure for “MVFFSVVVPTYNRRPILEKCLRALEQQQISAETAIAGYEVVVVDDGSTDGTVDWLKAQASEFPHVRLFEQDHQGPARARNLGVQQAQGDTIIFIDSDLVVTPPFLQAHATGLEKGRQRLGSDRCFTYGAVINTCNFDNPTAEPFKVTDFSNAYFATGNVAIARHWLETAGLFDTAFQLYGWEDLELGVRLKNLGLKLIRCPEAVGYHWHPPFSLEQIPKLIDQESQRGRMGVLFYQKHPTWEVRLMIQMTWLHRLLWGTLSLGGFLNERTLRPLLAWLLKRDRPQLALEIARIFLNWNNVRSVYAAYRESQGLASSLEHHHHHH”: “not failed”; for “MVFVWFIVAAIVTILTAIKLSNYADTIGEKSTLGGMLVGTIFLAGATSLPEITTTVSAIVLNNPDLAVGNVLGSNMFNLLILATLDLYFRRAQLFRGADTSHFFTASIGLLLAMVTLIAITLRLDVTLLGIGIDMLVLIVVYAFGMKLLSAVRNDPVPESQTIDQEDNRPVKKDVSLRHAMIGFAISAIVIMGAGTLLTVTGDEIAVVTGLGSSFVGSFLIAATTSLPEGVSVFVALRLKNINLALGSVLGSNLFNFLILGVSDILYRPGSIIAAISPVHQLTAAAVGILCLMTLYALLRPAEQSKRMYLMPSLVLIVFYFFSSYLIFVQ”: “failed”; for “MVGADLLCGSAWVPALWLNLCNLGVVVTLWQLLSRLPRMHRRMRSPHGVLSVFAACAAAAMVAASMAAVMAAPWFEQSLRATWLAWFSEQFSTGVLVLPVLLTAPSVRALVRGGAQPIRLAPLLVLLASLAFSIAFGGPGAIAFPIAALLWCAWTYSPFLVSLLTLTAGSTLIVAVAQNLMHFSVPQSEPGVTTLMSARLGIAMLVLGPLVVACVSQANRSLMARLAHQATVDHLTGVLTRSAFTRRANALLESRQQHAQALPLTLMMLDIDHFKSINDAHGHAVGDQVLRQFASTLQDQLHNDELIARLGGEEFVVILPGLAPERANFTAERLRRAIQDLHVTQADQRLQITVSIGVAGCDADMPAPSLDELLASADQALYRAKARGRNRVEQAEAQRLVI”: “failed”. Regarding “MVGGGSKHVGEGSKPRATKDDAYAYLRAVRAKFHNDSKKYDDFVAVMTNFKARRIDRDGCIKEVEQLLKGHRDLISGFNAFLPKCLEIKNYYFGAGEDLEVVYTAKRKLLARSVTKRSSSSSSSSSVYFLFRSCEII”, the protein production result is on record as “failed”. With “MVGGGTVKKDLKKAIQYYVKACELNEMFGCLSLVSNSQINKQKLFQYLSKACELNSGNGCRFLGDFYENGKYVKKDLRKAAQYYSKACGLNDQDGCLILGYKQYAGKGVVKNEKQAVKTFEKACRLGSEDACGILNNY”, the protein production result is on record as “failed”.

For “MVGNKVKSFMLPIISYAVPTFVLVYPSFFVSWLSESMHLAYWEVFAIVALPFLGRIIGSFIYQVFKNSVISYCFPFLGFLVILQNFLGALIFVRFLVGVIFGLLTSYAVESAVKSGRNVLVGFTTAGWPIGWVISYVAYVLLKNWNVINISGILIMLLALFELNGKEFGERSKISVSFPRLTSILIYVSALTPAFILQVMPSFLEVIKLTWLILPSYLLSIPTYVLLPIISEKVGIRKVLVISSIIVILSCVITFLLLPMMVIVFTSIGLGILGITPKYLAIRGEDPKRMGLALNIGSVMGLILPVVYGLMPFSSEFLLSILMVLMILI”, the protein production entry was “failed”. In the case of “MVHASVDIEVQFAIAVVKTLILVLGGIVTYLAYSAYQRTGDETLFQLSVGLALVGVGVLLGGFTFELLDVSLGVGVLIESLFVLAGLSVIAYSLKK” it was “failed”. As for “MVKAYQRYDAATSFGVISSVDSNIAYDSTGKYVLAPALEKVGIWHVRQGVCSKTLTPSSSRGGPSLAVTSIASSASSLVAVGYADGSIRIWDTEKGTCEVNFNSHKGAVTALRYNKVGSMLASGSKDNDIILWDVVGESGLFRLRGHRDQVTDLVFLDGGKKLVSSSKDKFLRVWDLETQHCMQIVSGHHSEVWSVDTDPEERYVVTGSADQELRFYAVKEYSSNGSLVSDSNANEIKASEEHSTENKWEILKLFGEIQRQTKDRVARVRFNVSGKLLACQMAGKTIEIFRVLDEAEAKQKAKRRLRRKEKKSSKVGDENSTANGEASAKIELADAVSSPTVLDVFKLLQVIRAGRKISSFSFCPTAPKESLGTLALSLNNNSLEFYSLKSSENAKTVTIEHQGHRSDVRSVTLSEDNTLLMSTSHSEVKIWNPSTGSCLRTIDSGYGLCSLIVPQNKYGIVGTKSGVLEIIDIGSATKVEEVKAHGGTIWSITPIPNDSGFVTVSADHEVKFWEYQVKQKSGKATKKLTVSNVKSMKMNDDVLAVAISPDAKHIAVALLDSTVKVFYMDSLKFYLSLYGHKLPVMCIDISSDGELIVTGSQDKNLKIWGLDFGDCHKSIFAHGDSVMGVKFVRNTHYLFSIGKDRLVKYWDADKFEHLLTLEGHHAEIWCLAISNRGDFLVTGSHDRSMRRWDRSEEPFFLEEEKEKRLEELFESEIDNAADDRHGPMEEIPEEGVAALAGKKTIDVLSAADSIIDALEVAEDETKRHAAYEEEKTKGKVPEYLPNAVMFGLSPSEYVLRAISNVRTNDLEQTLLALPFSDSLKFLCYMKDWSLIPEKVELVSRIATIILQTHHNQLVTTPSARPILSVLRDILYSEIKACKDTIGFNLAAMDHVKQMMDARSDAPFKDAKAKLLEIRSQQAKRMASRGDTKMEKKRKKKQKKLEEGQHGHALF”, the protein production entry is on record as “failed”. In the case of “MVKCLSAHNKAPHVSVITPSYNSIRFIGETIVSVQNQSYENWEMIIVDDASTDESVTKIKEIIEGDSRIRLVSLKENIGAAKARNIAIQEARGRYIAFLDSDDIWLPHKLKTQLLFMEEMSVAFSYASYSLIDENGNGLNREVNVPKSVDYHCLAGNTIIGCLTVIIDREKIPHIEMPSVQPEDTALWLKLLHEGHEAKGIQQVLAKYRIVANSVSRNKIKAAFRYWKLLRDQKCLNAVQIFYYFSKYAYHAYRKNKINVVGKTQL” it was “failed”; in that of “MVKESGMASLLLENPYYGYRKPKDQLRSSLKNVSDLFVMGGALILESAALLHWLERDGFWPLGMTGISMGGHMASLAVTNWPKPIPLIPCLSWTTASSVFTTGVLSRAVNWRELEKQYATHTVYEEEIISMLEYCGTDSFRMGQEFVKNAPGSFDGLDLTQELLQSGQQVALRSSYSGRPASDQDSSVLMGRRERDGLDQMLSAVSSSAPHLDMLHAKSIACGSGQRQSLQRESLCFMKGVMDECTHIANFSVPVDPSLIIIVQAKEDAYVPRTGVRSLQEIWPGCEVRYLNGGHISAYLFKQGLFRQAIYDAYDRFLHKYSSL”, “not failed”. Consider “MVKIEVAKPINFNRLITSKEAEVVSMRILNQPNSYISLFSLAKDEEITAEAMLGNRYYYCFNGNGEIFIENNKKTISNGDFLEITANHNYSIEARDNLKLIEIGEKIGDGNMENKTLKMLESASAFNLAEVVEYQEGKIVSKNLVAKPNLVMTIMSFWKGESLDPHKAPGDALVTVLDGEGKYYVDGKPFIVKKGESAVLPANIPHAVEAETENFKMLLILVKE”, for which the protein production entry is given as “not failed”. The same measure for “MVKKFKRVLVANRGEIAIRIFRACHELGIRTVAIYSEEDKLALFRTKADESYLIGQNKGPVDAYLNIDEIINLALKKGVDAIHPGYGFLSENSEFSRRCTEAGIEFIGPTGDMMDKLGDKINSKLAAKAAGVKTIPGVEKPIETEQQAIEFARTCGYPVMVKAAAGGGGRGMRIVEKEEDLIAACRSAKSEAKKAFGIEDIFIEKYLEGPKHIEVQVLGDKYGNIVHLYERDCSVQRRHQKVIELTPAVSMSEEKRLEICEDALKIARSIGYRSAGTLEFLLDKHGNHYFIEMNPRVQVEHTITEMVTGIDIVQSQILIAEGYKLNSPEVGINSQEDIHVNGYAIQCRITTEDPSNSFAPDTGKIDVYRTGSGFGIRLDGGNGFTGAVISPYYDSLLVKSTSWSRTFEDAIRKAIRAIKETYISGVKTNIDFLINVLNHETFRKGLCDTNFIANNPELFEITPRIDTELRVLKFIGEKVVNETHGHKIEVDVPSVPKYEIKEPLRGTKQILDEKGPKGLVEWIKDQDKLLLTDTTMRDAHQSLMATRLRTVDMVKIAKAESVLAKDLFSMEMWGGATFDTAYRFLKESPWERLERLRKRVPNVLFQMLLRGANAVGYKNYPDNVIREFIKQSSKSGIDVFRIFDSLNWVKGMEVAIDEVLNQGKVAEACMCYTGDILDTNRDKYTLNYYVNLAKEIEKSGAHILGIKDMSALLKPYAALKLIRALKNEISIPIHLHTHDTTGNGVATVLMAAHAGVDIADTAFNSMSGLTSQPALNSVVAALKNTDRDTKMDIGDLQKISDYWSTVRPVYSKFESGLKAVSAEIYKYEIPGGQYSNLKPQVESFGLGHRFEQVKEMYREVNIMLGDIVKVTPSSKMVGDLAIFMVQNELTSENILEKAKDMPFPDSVVSYFKGMMGQPKGGFPKELQKIVLKDEEAITCRPGELLPDEDFDKIRVRLKKENKIEPTDKDVISYALYPDVFEEYLKYKNEYGDLSRMGSDVFFHGLAEGEISELEIAEGKTLVVQLLHIGKLDKQGNRTLVFEVNGNRREIKIKDKVSSTKSEIVEEIVIADSSNKKEIGASIPGNVVKVFVKPGDKVKKGDSLMVIEAMKMETNVSVSEDGTVGGIFVKEGDQVQSGQLLVKLD”: “failed”. As for “MVKKGFLTGLLLFGIFFGAGNLIFPPALGVASGQDFWPAILGFCLSGVGLAIITLLLGTLTNGGYKTEMSEKFSPWFSLTFLVILYLTIGPLFAIPRTATVSFEIGVAPIVGHSPIALLCFTACFFAAAYYLAIRPNGILDSVGKILTPVFAFLILSLVVVGAIAYGNLESAKASADYAGKAFGSGVLAGYNTLDALAAVAFCLVATETLKKFGFKTKKEYLSTIWIVGIVTSLAFSILYIGLGFLGNKFPVPADILADPNVNKGAYVLSQASYKLFGNFGRYFLSIMVTLTCFTTTVGLIVSVSEFFDKNFRFGNYKLFATVFTLIGFLIANLGLNAVITFSVPVLTLLYPIVIVIVLIILINKWLPLSKKGMSLTIGLVTLVSFVEVLAGQWQEKTLTQLVGFLPFHTISMGWLVPMLIGIVFSLVLSDKQKGQAFDLEKFEG”, the protein production result is recorded as “failed”. As for “MVKKIGLSIMLLFFFLIIALPIYAWKIEPNLVHVNQVTLGKKNQREPLNVVQLSDIQVSEFYETKRLDKVIKKVNREKPDIIVFTGDLFDNYAKNPQQKEPMIEKLKQLQATIGKYAVWGNHDYGGGASAVYDEVMEASGFTVMKNQGETVTLADGRRLFIGGLDDSLLGNPSVSETLSYRETYDYALLMTHEPDVADAFVGTGTQLVLAGHSHGGQIWIPFYPITNVLAEKYTRGLYQLDQETQLYVNTGLGTTAIHARFGVIPEITHFTIYI”, the protein production result was “failed”. On to “MVKLGCSFSGKPGKEAGDQDGAAMDSVPLISPLDVSQLQPSFSDQVVINTQTEYQLTSADQPKKFADLEGQRLACSHSEEGRRLPTARMIAFAMALLGCVLIMYKAIWYDQFTCPDGFLLRHKICTPLTLEMYYTEMDPERHRSILAAIGAYPLSRKHGTEMPAVWGNNYRTAKEEHKGTTPAAMAVSTAAAAAAAEGTEPSGKSLDTREKEDPQKAEGVPSQPPK”, for which the protein production result is “failed”. For the sequence “MVKNGRDPPERNFYCTEKEETAPPLMNIFDDFKSQIEREIMTIFLKTAYESLLSIAISTEIIVPEDETRSLEKEVIKLMKLMKLMNLLEPLGNRVSRLMGLVRNAEEHRERIVKRNQESDVREIFKIAASRTKTRFHKALQKESSSSSMKWGFTEAKDEVLSLGIRLTHALIKLTLLRVKKNDREKQLLLRDWIFDESYEKQSALMYLLDYLLYKAEEFAASVVVEESGNDHHRQHILEEDRIGDDILTRISEAIFILQLLAMNLSRNVLTERDLIATNDQLLRCVRDVKFVESTIVVLMKGRSLKLKHKGKQSLLMKERTETIFWAKVNAELNKCWGESFWKYVEAARHLEAVVSSQQIVYTLCKLFVFGFES”, the protein production result is given as “failed”.
